This is an account of results in patent US20150098945A1 (Daiichi Sankyo, published 2015).

Where a chain is given by its changes, count along the chain named.

Experiment [1] addresses T1, N-terminal FLAG-tagged cynomolgus monkey ROBO4, cynoROBO4-1 (pCI-FLAG-cynoROBO4-1) (cynomolgus monkey, UniProt Q8WZ75 28-1007 (human entry)).
T1 chain: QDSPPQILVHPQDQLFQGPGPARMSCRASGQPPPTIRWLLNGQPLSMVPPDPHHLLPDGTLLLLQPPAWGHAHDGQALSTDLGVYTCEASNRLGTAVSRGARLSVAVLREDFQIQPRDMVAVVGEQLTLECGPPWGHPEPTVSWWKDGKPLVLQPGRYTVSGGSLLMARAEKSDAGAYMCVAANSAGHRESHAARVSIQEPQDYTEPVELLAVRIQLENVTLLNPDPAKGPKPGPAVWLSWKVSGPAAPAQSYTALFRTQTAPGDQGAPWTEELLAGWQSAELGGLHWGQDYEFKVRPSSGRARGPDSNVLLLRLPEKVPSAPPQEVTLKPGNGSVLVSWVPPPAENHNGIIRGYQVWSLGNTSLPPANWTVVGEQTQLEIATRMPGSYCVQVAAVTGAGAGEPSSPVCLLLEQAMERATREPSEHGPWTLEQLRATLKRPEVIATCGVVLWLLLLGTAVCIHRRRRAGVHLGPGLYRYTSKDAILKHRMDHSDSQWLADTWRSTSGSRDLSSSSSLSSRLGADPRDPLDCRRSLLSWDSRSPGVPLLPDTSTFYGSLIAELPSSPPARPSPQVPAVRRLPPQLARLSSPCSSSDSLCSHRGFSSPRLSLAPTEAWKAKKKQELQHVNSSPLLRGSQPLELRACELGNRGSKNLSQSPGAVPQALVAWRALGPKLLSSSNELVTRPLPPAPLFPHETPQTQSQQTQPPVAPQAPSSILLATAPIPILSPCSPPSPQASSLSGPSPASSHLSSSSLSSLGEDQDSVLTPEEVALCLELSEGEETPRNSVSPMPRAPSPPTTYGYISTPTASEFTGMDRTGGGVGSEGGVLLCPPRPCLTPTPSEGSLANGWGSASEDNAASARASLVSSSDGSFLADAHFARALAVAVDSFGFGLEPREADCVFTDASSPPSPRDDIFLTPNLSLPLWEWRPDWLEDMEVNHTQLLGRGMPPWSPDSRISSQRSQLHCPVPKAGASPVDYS
Put plainly: flow cytometry (FC500), HEK293 cells transfected with pCI-FLAG-cynoROBO4-1, antibody at 10 µg/mL, FITC goat anti-human IgG Fc; control histogram IgG (human IgG). On the technique in general: Flow cytometry measures light scatter and fluorescence of single cells or particles in a stream.

For experiment [2], the target named is T2, rat ROBO4 (pCI-raROBO4-transfected HEK293 cells) (rat, UniProt Q80W87 38-949 at identity 0.93)).
T2 chain: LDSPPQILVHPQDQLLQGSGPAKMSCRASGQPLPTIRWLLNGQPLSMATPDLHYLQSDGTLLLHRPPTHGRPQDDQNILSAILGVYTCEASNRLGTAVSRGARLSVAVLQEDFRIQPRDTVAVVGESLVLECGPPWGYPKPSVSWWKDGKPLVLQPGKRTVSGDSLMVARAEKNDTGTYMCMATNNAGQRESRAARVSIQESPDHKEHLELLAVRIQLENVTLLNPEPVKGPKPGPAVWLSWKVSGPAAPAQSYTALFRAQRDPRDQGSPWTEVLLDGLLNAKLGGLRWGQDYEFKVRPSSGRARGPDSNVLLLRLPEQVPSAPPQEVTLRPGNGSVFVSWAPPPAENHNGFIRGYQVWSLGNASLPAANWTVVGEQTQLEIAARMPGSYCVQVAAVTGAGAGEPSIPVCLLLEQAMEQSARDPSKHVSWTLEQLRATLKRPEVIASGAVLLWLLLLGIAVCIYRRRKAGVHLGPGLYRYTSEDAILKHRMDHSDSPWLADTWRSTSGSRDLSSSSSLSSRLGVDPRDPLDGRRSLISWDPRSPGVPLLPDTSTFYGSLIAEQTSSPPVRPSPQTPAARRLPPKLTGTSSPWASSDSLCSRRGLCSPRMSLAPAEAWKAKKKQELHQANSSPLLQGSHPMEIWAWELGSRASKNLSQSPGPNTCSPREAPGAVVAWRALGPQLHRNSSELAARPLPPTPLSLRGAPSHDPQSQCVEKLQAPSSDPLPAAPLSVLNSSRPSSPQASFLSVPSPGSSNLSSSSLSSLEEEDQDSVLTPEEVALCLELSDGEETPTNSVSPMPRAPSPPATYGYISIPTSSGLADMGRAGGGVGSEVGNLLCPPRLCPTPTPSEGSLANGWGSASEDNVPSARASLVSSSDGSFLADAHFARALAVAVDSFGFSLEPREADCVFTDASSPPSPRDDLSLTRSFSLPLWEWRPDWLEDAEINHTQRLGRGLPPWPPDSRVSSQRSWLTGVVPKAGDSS
Briefly: flow cytometry (FC500), HEK293 cells transfected with pCI-raROBO4, FITC goat anti-human IgG Fc; control histogram IgG (human IgG).

B1: humanized MAb1 antibody H-1143 (antibody, human IgG2, kappa, V domains shown)
VH: EVQLVESGGGLVQPGGSLRLSCAASGFTFSTYAMSWVRQAPGKGLEWVATISQGGTYTYYPDSVKGRFTISRDNAKNTLYLQMNSLRAEDTAVYYCARLIYYDYLDYWGQGTLVTVSS
VL: DIVMTQSPLSLPVTLGEPASISCRSSQSLENENKNLYLNWYLQKPGQSPQLLIYRVSNRFSGVPDRFSGSGSGTDFTLKISRVEAEDVGVYYCLQVTHVPWTFGPGTKVDIKR
notes: Human IgG2 / kappa constant regions; also called hMAb1-H2-type heavy chain + hMAb1-L2-type light chain
Turning to B1, in experiment [1], the binding result is given as “binds”.

B2: humanized MAb1 antibody H-2140 (antibody, human IgG2, kappa, V domains shown)
VH: B1 VH with G44R
VL: B1 VL with E32S, K34G, L36T
notes: Human IgG2 / kappa constant regions; also called hMAb1-H4-type heavy chain + hMAb1-L1-type light chain
In the case of B2, the binding result in experiment [2] is “no binding (tested: 10 µg/mL)”.
